Source: IntAct's records for PubMed 16864798

Target: plk1_human PLK1 (UniProt P53350)
Sequence (P53350 whole entry): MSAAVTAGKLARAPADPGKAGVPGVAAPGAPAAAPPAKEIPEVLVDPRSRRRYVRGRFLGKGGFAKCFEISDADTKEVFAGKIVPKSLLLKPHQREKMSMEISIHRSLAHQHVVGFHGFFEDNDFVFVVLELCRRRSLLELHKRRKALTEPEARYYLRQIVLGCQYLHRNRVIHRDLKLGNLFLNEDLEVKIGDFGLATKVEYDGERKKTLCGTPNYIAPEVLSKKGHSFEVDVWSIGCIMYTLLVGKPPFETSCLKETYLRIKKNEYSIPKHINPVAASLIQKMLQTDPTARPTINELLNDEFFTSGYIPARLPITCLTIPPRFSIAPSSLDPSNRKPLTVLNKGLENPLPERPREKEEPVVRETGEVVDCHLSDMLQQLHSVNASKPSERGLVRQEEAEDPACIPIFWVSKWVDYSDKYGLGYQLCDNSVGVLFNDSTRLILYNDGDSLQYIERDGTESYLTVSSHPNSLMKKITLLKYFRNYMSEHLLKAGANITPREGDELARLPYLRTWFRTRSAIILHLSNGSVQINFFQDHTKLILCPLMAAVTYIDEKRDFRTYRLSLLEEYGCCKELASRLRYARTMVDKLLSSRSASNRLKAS

RecQ-like DNA helicase BLM (Homo sapiens), P54132 S144A;S304A;S1290A;S1296A
effect of a mutation on the interaction: disrupting interaction strength
